Experimental findings from PMC7471176 are described below.

Assay [1] has as its target Casein (Hammerstein casein).
Assay [2] deals with Casein (Hammerstein casein). This is another data set of the same source.

Consider “KP-43 Y195Q (Tyr195Gln) variant (enzyme)”, for which the specific caseinolytic activity at pH 10, against that of the Y195W variant in assay [1] worked out at 4.4 fold.

In assay [2], “KP-43 alkaline serine protease, wild type (enzyme)” returned a specific caseinolytic activity at pH 7, against that at pH 10 (series pH 6 to 10) of 90%.

Substance “KP-43 Y195I (Tyr195Ile) variant (enzyme)” showed a specific caseinolytic activity at pH 6, against that of the Y195R variant in assay [1] of 1.8 fold.
